Measurements: paper PMC4915676, “Dissociation Dynamics of XPC-RAD23B from Damaged DNA Is a Determining Factor of NER Efficiency”

T1: UvrA (UniProt P0A698 1-940)
T1 sequence: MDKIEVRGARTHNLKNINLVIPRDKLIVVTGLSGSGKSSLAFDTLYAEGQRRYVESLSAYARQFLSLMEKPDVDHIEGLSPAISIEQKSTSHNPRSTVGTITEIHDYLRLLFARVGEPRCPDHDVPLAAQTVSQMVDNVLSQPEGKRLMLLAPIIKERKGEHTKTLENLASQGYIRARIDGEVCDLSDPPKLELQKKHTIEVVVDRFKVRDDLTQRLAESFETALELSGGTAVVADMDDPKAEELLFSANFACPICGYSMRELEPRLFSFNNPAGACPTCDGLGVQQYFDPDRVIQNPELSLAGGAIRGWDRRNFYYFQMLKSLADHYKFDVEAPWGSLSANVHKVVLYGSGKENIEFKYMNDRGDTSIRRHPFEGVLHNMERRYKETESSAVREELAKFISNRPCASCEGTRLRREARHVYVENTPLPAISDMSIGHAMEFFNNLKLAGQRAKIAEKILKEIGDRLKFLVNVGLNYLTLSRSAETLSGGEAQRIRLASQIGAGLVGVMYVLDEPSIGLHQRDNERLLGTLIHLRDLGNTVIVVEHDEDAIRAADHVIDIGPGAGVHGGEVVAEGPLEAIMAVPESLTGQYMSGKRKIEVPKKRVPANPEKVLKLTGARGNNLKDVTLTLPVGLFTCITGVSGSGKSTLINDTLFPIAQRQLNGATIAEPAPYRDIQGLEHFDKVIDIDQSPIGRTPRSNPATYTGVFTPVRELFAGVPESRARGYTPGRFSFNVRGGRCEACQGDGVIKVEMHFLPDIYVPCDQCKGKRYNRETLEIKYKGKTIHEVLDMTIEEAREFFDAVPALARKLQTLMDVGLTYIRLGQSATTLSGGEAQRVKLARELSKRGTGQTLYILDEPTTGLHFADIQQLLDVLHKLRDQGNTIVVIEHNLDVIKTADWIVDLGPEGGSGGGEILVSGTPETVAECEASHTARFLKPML


What was measured:
[1] = biological target: T1, UvrA; assay: SPR; 0.5 mM ATP, 5 mM Mg2+; SPR: HBS-P+ (10 mM HEPES, 150 mM NaCl, 0.05% P20), 5 mM MgCl2, 1 mM DTT, 100 ug/mL BSA (+0.5 mM ATP for UvrA), pH and temperature not stated; EMSA: 20 mM Hepes-KOH pH 7.9, 75 mM KCl, 5 mM MgCl2, 1 mM DTT, 5% glycerol, 100 ug/mL BSA, 30 C; conditions: protein: recombinant; chain copies: 2; label: 5'-biotin on strand 1; blunt
[2] = biological target: T2, XPC-RAD23B (Homo sapiens, UniProt Q01831;P54727 1-940;1-409); assay: SPR; 5 mM Mg2+; SPR: HBS-P+ (10 mM HEPES, 150 mM NaCl, 0.05% P20), 5 mM MgCl2, 1 mM DTT, 100 ug/mL BSA (+0.5 mM ATP for UvrA), pH and temperature not stated; EMSA: 20 mM Hepes-KOH pH 7.9, 75 mM KCl, 5 mM MgCl2, 1 mM DTT, 5% glycerol, 100 ug/mL BSA, 30 C; conditions: protein: recombinant; copies: 1;1; label: 5'-biotin on strand 1; blunt
T2 sequence (Q01831 whole entry, chain 1 of 2): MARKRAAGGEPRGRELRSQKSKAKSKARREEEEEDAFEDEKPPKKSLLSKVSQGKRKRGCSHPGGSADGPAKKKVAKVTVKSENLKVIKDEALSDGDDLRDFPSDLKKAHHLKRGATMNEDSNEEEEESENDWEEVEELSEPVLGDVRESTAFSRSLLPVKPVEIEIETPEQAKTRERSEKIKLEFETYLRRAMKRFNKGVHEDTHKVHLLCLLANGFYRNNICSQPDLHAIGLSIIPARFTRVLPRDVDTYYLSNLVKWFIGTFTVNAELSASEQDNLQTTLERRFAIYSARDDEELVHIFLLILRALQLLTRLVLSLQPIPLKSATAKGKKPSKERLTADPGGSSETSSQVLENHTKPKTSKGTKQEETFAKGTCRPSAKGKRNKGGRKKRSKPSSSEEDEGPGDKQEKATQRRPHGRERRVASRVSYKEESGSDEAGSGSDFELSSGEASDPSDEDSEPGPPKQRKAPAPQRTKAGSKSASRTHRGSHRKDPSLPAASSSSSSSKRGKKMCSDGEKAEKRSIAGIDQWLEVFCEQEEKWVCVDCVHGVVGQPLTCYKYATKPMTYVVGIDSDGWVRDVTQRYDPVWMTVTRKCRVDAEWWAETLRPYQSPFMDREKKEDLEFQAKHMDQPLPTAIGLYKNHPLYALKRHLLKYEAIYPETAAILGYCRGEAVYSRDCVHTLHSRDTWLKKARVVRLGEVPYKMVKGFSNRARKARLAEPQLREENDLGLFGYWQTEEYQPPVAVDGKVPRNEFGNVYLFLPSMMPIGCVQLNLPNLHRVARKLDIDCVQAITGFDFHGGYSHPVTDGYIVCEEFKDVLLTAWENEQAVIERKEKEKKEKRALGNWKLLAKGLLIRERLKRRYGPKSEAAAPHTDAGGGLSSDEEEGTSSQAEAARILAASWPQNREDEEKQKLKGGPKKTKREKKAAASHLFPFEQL
T2 sequence (P54727 whole entry, chain 2 of 2): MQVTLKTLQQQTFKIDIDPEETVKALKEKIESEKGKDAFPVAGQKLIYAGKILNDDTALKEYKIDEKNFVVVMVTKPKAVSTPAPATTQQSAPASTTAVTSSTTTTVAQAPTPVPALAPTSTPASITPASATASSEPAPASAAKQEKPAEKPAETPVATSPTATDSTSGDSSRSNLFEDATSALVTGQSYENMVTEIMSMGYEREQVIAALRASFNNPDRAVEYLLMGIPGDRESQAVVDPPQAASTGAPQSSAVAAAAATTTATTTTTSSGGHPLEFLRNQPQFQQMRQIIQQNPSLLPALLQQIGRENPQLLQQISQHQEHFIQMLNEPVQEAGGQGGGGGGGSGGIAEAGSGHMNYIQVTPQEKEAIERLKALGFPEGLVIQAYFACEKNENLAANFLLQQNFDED

[3] = biological target: T2, XPC-RAD23B; assay: SPR; 5 mM Mg2+; error as printed is 0.01e-9; SPR: HBS-P+ (10 mM HEPES, 150 mM NaCl, 0.05% P20), 5 mM MgCl2, 1 mM DTT, 100 ug/mL BSA (+0.5 mM ATP for UvrA), pH and temperature not stated; EMSA: 20 mM Hepes-KOH pH 7.9, 75 mM KCl, 5 mM MgCl2, 1 mM DTT, 5% glycerol, 100 ug/mL BSA, 30 C; conditions: protein: recombinant; copies: 1;1; label: 5'-biotin on strand 1; blunt

| Binder | Kd [1] [pM] | Kd [2] [pM] | Kd [3] [pM] |
| --- | --- | --- | --- |
| NarI-G1 mono-FAAF 55-mer (dsDNA, dG-FAAF at G31 (G1) of strand 1) DNA 1: CCACTCCTATCCACCATCCATCTTACTCTCGGCGCCATCACCACTCACCACCACA DNA 2: TGTGGTGGTGAGTGGTGATGGCGCCGAGAGTAAGATGGATGGTGGATAGGAGTGG | 1300 | 1800 |  |
| NarI-G3 mono-FAAF 55-mer (dsDNA, dG-FAAF at G34 (G3) of strand 1) DNA 1: CCACTCCTATCCACCATCCATCTTACTCTCGGCGCCATCACCACTCACCACCACA DNA 2: TGTGGTGGTGAGTGGTGATGGCGCCGAGAGTAAGATGGATGGTGGATAGGAGTGG | 3900 |  | 1100 |
| NarI-G2 mono-FAAF 55-mer (dsDNA, dG-FAAF at G32 (G2) of strand 1) DNA 1: CCACTCCTATCCACCATCCATCTTACTCTCGGCGCCATCACCACTCACCACCACA DNA 2: TGTGGTGGTGAGTGGTGATGGCGCCGAGAGTAAGATGGATGGTGGATAGGAGTGG | 2400 | 900 |  |
| NarI-G1G3 di-FAAF 55-mer (dsDNA, dG-FAAF at G31 and G34 (G1, G3) of strand 1) DNA 1: CCACTCCTATCCACCATCCATCTTACTCTCGGCGCCATCACCACTCACCACCACA DNA 2: TGTGGTGGTGAGTGGTGATGGCGCCGAGAGTAAGATGGATGGTGGATAGGAGTGG | 270 | 16 |  |
| NarI-G1G2 di-FAAF 55-mer (dsDNA, dG-FAAF at G31 and G32 (G1, G2) of strand 1) DNA 1: CCACTCCTATCCACCATCCATCTTACTCTCGGCGCCATCACCACTCACCACCACA DNA 2: TGTGGTGGTGAGTGGTGATGGCGCCGAGAGTAAGATGGATGGTGGATAGGAGTGG | 490 | 76 |  |
| NarI-G2G3 di-FAAF 55-mer (dsDNA, dG-FAAF at G32 and G34 (G2, G3) of strand 1) DNA 1: CCACTCCTATCCACCATCCATCTTACTCTCGGCGCCATCACCACTCACCACCACA DNA 2: TGTGGTGGTGAGTGGTGATGGCGCCGAGAGTAAGATGGATGGTGGATAGGAGTGG | 500 | 4.2 |  |
